# Where a chain is given by its changes, count along the chain named.
# T1: CLDN6 endogenously expressed by human cancer cell lines (ARK2, OVCA429) (human, UniProt P56747 1-220)
# T1 construct: Untagged endogenous protein; also called Endogenous CLDN6+
# T1 sequence: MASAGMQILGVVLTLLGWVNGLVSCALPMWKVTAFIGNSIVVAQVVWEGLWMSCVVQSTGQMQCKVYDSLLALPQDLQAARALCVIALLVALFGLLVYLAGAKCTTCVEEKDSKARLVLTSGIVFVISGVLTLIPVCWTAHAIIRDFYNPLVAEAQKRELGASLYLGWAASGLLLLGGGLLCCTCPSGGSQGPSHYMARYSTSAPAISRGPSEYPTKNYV
# T2: human CLDN6 fused to GFP, expressed on engineered HEK293T cells (HEK293T-CLDN6-mGFP) (human, UniProt P56747 1-220)
# T2 construct: It calls residues 1-21 a signal peptide; also called Claudin-6; HEK293T-CLDN6-mGFP Artificial CLDN6+; not shown: mGFP tag
# T2 sequence: T1 sequence
# B1: AB4-6 (antibody, V domains shown)
# VH: QVQLVQSGAEVKKPGASVKMSCKASGYTFTSYTMHWIRQAPGQGLEWIGYINPSSTYTHYAQKFQGRATLTADKSTSTAYMELSSLRSEDTAVYYCSRGELGGFAYWGQGTLVTVSS
# VL: DVVMTQSPLSLPVTLGQPASISCRSSQSLVHSDGNTYLNWYQQRPGQSPRLLIYKVSNRFSGVPDRFSGSGSGTDFTLKISRVEAEDVGVYYCSQSTHVPYTFGQGTKLEIK
# notes: also called Humanized AB 4-6
# B2: AB4-12 (antibody, V domains shown)
# VH: B1 VH with L45Q, A61I, Q62K, Q65K, G66D
# VL: B1 VL
# notes: Humanized; also called Humanized AB 4-12
# B3: AB4-7 (antibody, V domains shown)
# VH: B1 VH with L45Q
# VL: B1 VL
# notes: also called Humanized AB 4-7
# B4: AB4-9 (antibody, V domains shown)
# VH: B1 VH with A61I, Q62K, Q65K, G66D, K74T
# VL: B1 VL
# notes: Humanized; also called Humanized AB 4-9
# B5: AB4-10 (antibody, V domains shown)
# VH: B1 VH with L45Q, A61I, Q62K, Q65K, G66D, K74T
# VL: B1 VL
# notes: Humanized; also called Humanized AB 4-10
# B6: AB4-11 (antibody, V domains shown)
# VH: B1 VH with A61I, Q62K, Q65K, G66D
# VL: B1 VL
# notes: Humanized; also called Humanized AB 4-11
# B7: AB4-8 (antibody, V domains shown)
# VH: QVQLVQSGAEVKKPGASVKVSCKASGYTFTSYTMHWVRQAPGQGLEWMGYINPSSTYTHYIKKFKDRVTMTADTSTSTVYMELSSLRSEDTAVYYCSRGELGGFAYWGQGTLVTVSS
# VL: B1 VL
# notes: Humanized; also called Humanized AB 4-8
# B8: AB1-11 (antibody, V domains shown)
# VH: QVQLVQSGAEVKKPGASVKMSCKASGYTFTTYTMHWVRQAPGQGLEWIGFINPSSGYTDYAQKFQGRVTLTADKSTSTVYMELSSLRSEDTAVYYCANGDYYVAYWGQGTLVTVSS
# VL: DIQLTQSPSSLSASVGDRVTMTCTASSSVSSTYFHWYQQKPGKAPKLWIYSTSNLASGVPSRFSGSGSGTDYTLTISSMQPEDAATYYCHQYHRSPLTFGQGTKLEIK
# notes: Humanized; also called Humanized AB 1-11
# B9: AB3-7 (antibody, V domains shown)
# VH: EVQLLESGGGLVQPGGSMRLSCAASGFTFSNYWMNWVRQAPGKGLEWVAQIRLKSDNYATHYADSVKGRFTISRDDSKNTVYLQMNSLRAEDTGVYYCNDGPPSGSWGQGTLLTVSS
# VL: DIQMTQSPSSLSASVGDRVTITCRISENIYSYLAWYQQKPGKAPKLLVYNAKILVEGVPSRFSGSGSGTDFTLTISSLQPEDFGTYYCQHHYTVPWTFGQGTKLEIK
# notes: also called Humanized AB 3-7
# Molecular target: T1, CLDN6 endogenously expressed by human …
# Experiment: FACS, 0.3 µg Ab, ARK2 cells
# Method: (§1) FACS assays were also carried out to determine relative antigen binding strengths of the humanized antibodies (at either 1.5 μg or 0.3 μg) for binding to CLDN6 as expressed by the indicated cancer cell lines. 2nd Ab only was used as a negative control.
row,FACS fluorescence,Binder
1,3300,B1
2,9690,B2
3,2770,B3
4,3060,B4
5,7210,B5
6,6390,B6
7,3120,B7
8,53900,B8
9,36000,B9

# Molecular target: T2, human CLDN6 fused to GFP, expressed on …
# Experiment: FACS, 0.3 µg Ab, 293T clone with human CLDN6
# In short: (§2)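 Using a direct-binding flow cytometry method essentially as in the source, humanized antibodies were tested on engineered 293T clones expressing human CLDN6. Labelled antibody (Alexa Fluor 647 NHS ester) was added at 0.3 µg or 1.5 µg to EDTA-detached cells, which were kept on ice in the dark for 30 min, washed and read in channel FL4H of a BD Accuri C6. Fluorescence indicates relative antigen binding strength.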
row,FACS fluorescence,Binder
1,10800,B1
2,71100,B2
3,19200,B3
4,37200,B4
5,50800,B5
6,37800,B6
7,49300,B7
8,64900,B8
9,106000,B9

# Molecular target: T1, CLDN6 endogenously expressed by human …
# Experiment: FACS, 1.5 µg Ab, ARK2 cells
# Method: as §1
row,FACS fluorescence,Binder
1,9840,B1
2,24200,B2
3,7560,B3
4,7790,B4
5,20200,B5
6,9170,B6
7,7310,B7
8,97700,B8
9,90400,B9

# Molecular target: T2, human CLDN6 fused to GFP, expressed on …
# Experiment: FACS, 1.5 µg Ab, 293T clone with human CLDN6
# In short: as §2
row,FACS fluorescence,Binder
1,29200,B1
2,86200,B2
3,33300,B3
4,56900,B4
5,77200,B5
6,61200,B6
7,77600,B7
8,113000,B8
9,169000,B9
